Measured values: PMC5643558

Experiments:
TRIM21 [1] = target: TRIM21 (UniProt P19474); experiment: SFB-TRIM21 pull-down from cells, Flag blot; conditions: reference: WT Flag-rPFKP, EGF; sites S386
TRIM21 [2] = target: TRIM21 (UniProt P19474); experiment: S-tag pull-down after in vitro kinase assay; conditions: sites S386

PFKP (phosphofructokinase 1 platelet isoform) (from UniProt Q01813) Flag-rPFKP S386A, EGF
binding against the reference (TRIM21 [1]): stronger

PFKP (phosphofructokinase 1 platelet isoform) (from UniProt Q01813) WT PFKP incubated with active GST-AKT1
binding against the reference (TRIM21 [2]; reference: WT PFKP without AKT1): weaker

PFKP (phosphofructokinase 1 platelet isoform) (from UniProt Q01813) PFKP S386A incubated with active GST-AKT1
binding against the reference (TRIM21 [2]; reference: WT PFKP incubated with active GST-AKT1): stronger
